Measured values published in the Human Domainome abundance scans (Beltran et al. 2025).
± gives the uncertainty stated by the source.

B1: Tumor protein p73, residues 487 to 549; numbered along this chain, O15350 (parent)
chain: YHADPSLVSFLTGLGCPNCIEYFTSQGLQSIYHLQNLTIEDLGALKIPEQYRMTIWRGLQDLK

Variants of: B1
Test: abundance fitness (aPCA) (normalised: wild type 0, dead -1); higher = more abundant; growth selection in yeast, the domain comes from the species named
Conditions: Homo sapiens

Abundance fitness, by site and new letter:
T54: D -0.01 ± 0.065, I 0.025 ± 0.062, Y -0.189 ± 0.069, S -0.042 ± 0.075, L -0.01 ± 0.051, C -0.13 ± 0.1
I47: K -0.929 ± 0.17, D -0.477 ± 0.13, Q -0.985 ± 0.088, N -0.413 ± 0.15, R -0.962 ± 0.063, Y -0.824 ± 0.17, F -0.263 ± 0.068, V 0.071 ± 0.026, C -0.171 ± 0.034, P -1.07 ± 0.17, G -0.913 ± 0.053, E -1.06 ± 0.11, L 0.021 ± 0.033, T -0.431 ± 0.061, A -0.768 ± 0.075, S -0.95 ± 0.083, W -0.925 ± 0.053
R57: I -0.24 ± 0.2, F 0.311 ± 0.39, K -0.011 ± 0.048, N -0.134 ± 0.11, H 0.012 ± 0.12, G -0.01 ± 0.046, C -0.192 ± 0.12, D 0.011 ± 0.26, L -0.069 ± 0.038, E -0.058 ± 0.057, A -0.068 ± 0.041
L37: Q -0.41 ± 0.13, R -0.191 ± 0.034, H -0.063 ± 0.12, S -0.142 ± 0.044, M 0.032 ± 0.05, I -0.058 ± 0.071, N -0.426 ± 0.21, K 0.001 ± 0.076, E -0.667 ± 0.074, F 0.02 ± 0.064, W -0.159 ± 0.054, C -0.089 ± 0.082, Y 0.071 ± 0.11, P -0.799 ± 0.12, D -0.737 ± 0.16, T -0.039 ± 0.065, G -0.536 ± 0.044
R52: W -0.082 ± 0.048, T 0.009 ± 0.045, C -0.131 ± 0.11, L 0.004 ± 0.042, I 0.2 ± 0.073, H 0.054 ± 0.061, Y 0.095 ± 0.24, F -0.53 ± 0.42, P -0.755 ± 0.095, M -0.146 ± 0.063, E -0.075 ± 0.051, D -0.425 ± 0.47, Q -0.019 ± 0.046, S -0.066 ± 0.05, G -0.114 ± 0.046
I55: F -0.601 ± 0.096, M -0.241 ± 0.057, K -1.01 ± 0.14, A -0.918 ± 0.11, T -0.598 ± 0.077, N -0.559 ± 0.35, S -0.881 ± 0.1, E -0.869 ± 0.14, C -0.459 ± 0.079, L -0.091 ± 0.039, P -1.08 ± 0.16, V -0.041 ± 0.044, R -0.807 ± 0.056, W -0.923 ± 0.084, Q -0.5 ± 0.098
L42: G -0.654 ± 0.05, H -0.577 ± 0.17, A -0.447 ± 0.048, D -0.618 ± 0.33, K -0.515 ± 0.079, M -0.078 ± 0.047, I -0.215 ± 0.13, W 0.072 ± 0.033, T -0.45 ± 0.062, N -0.858 ± 0.13, Y -0.02 ± 0.098, V -0.127 ± 0.028, C -0.494 ± 0.15, F 0.012 ± 0.07, P -0.696 ± 0.11, R -0.733 ± 0.051, S -0.785 ± 0.08, Q -0.512 ± 0.063
T38: A -0.014 ± 0.038, P -0.201 ± 0.054, N -0.11 ± 0.12, M -0.13 ± 0.049, K 0.103 ± 0.071, L -0.158 ± 0.037, R -0.049 ± 0.028, D -0.215 ± 0.16, C -0.073 ± 0.073, W -0.415 ± 0.064, E -0.107 ± 0.074, F -0.517 ± 0.13, V -0.106 ± 0.033, G -0.088 ± 0.036, S 0.018 ± 0.035, Q -0.018 ± 0.027, Y -0.409 ± 0.11, H -0.064 ± 0.068
W56: M -0.049 ± 0.05, L 0.017 ± 0.04, R -0.163 ± 0.029, F 0.075 ± 0.07, A 0.014 ± 0.037, T 0.082 ± 0.051, C -0.124 ± 0.11, E -0.047 ± 0.039, V -0.048 ± 0.043, N -0.137 ± 0.08, I 0.086 ± 0.058, G -0.128 ± 0.035, P -0.893 ± 0.13, S 0.011 ± 0.042, D -0.241 ± 0.056, K -0.106 ± 0.044, Y 0.037 ± 0.066, Q 0.035 ± 0.046
E40: V -0.097 ± 0.049, C 0.033 ± 0.093, A 0.007 ± 0.048, R -0.059 ± 0.035, W -0.085 ± 0.044, Q -0.124 ± 0.085, D -0.06 ± 0.071, P -0.152 ± 0.074, Y -0.215 ± 0.13, H -0.005 ± 0.11, K -0.141 ± 0.069, S -0.048 ± 0.053, G 0.053 ± 0.043, M -0.127 ± 0.054
N36: Y -0.202 ± 0.091
D41: P -1.05 ± 0.15, S 0 ± 0.031, I -0.9 ± 0.26, N -0.042 ± 0.057, W -0.885 ± 0.11, H -0.198 ± 0.068, Q 0.105 ± 0.057, G 0.006 ± 0.041, C -0.361 ± 0.07, A -0.094 ± 0.038, R -0.052 ± 0.036, V -0.644 ± 0.056, Y -0.45 ± 0.089, T -0.159 ± 0.053, E 0.119 ± 0.042, M -0.184 ± 0.075, F -0.689 ± 0.16
